Assay results reported in patent US20100272712.

System: active JNK3 purified protein (Upstate)

B1: Myc-MKP7 (enzyme, UniProt Q9BY84 1-665, looked up, species assumed)
chain: MAHEMIGTQIVTERLVALLESGTEKVLLIDSRPFVEYNTSHILEAININCSKLMKRRLQQDKVLITELIQHSAKHKVDIDCSQKVVVYDQSSQDVASLSSDCFLTVLLGKLEKSFNSVHLLAGGFAEFSRCFPGLCEGKSTLVPTCISQPCLPVANIGPTRILPNLYLGCQRDVLNKELMQQNGIGYVLNASNTCPKPDFIPESHFLRVPVNDSFCEKILPWLDKSVDFIEKAKASNGCVLVHCLAGISRSATIAIAYIMKRMDMSLDEAYRFVKEKRPTISPNFNFLGQLLDYEKKIKNQTGASGPKSKLKLLHLEKPNEPVPAVSEGGQKSETPLSPPCADSATSEAAGQRPVHPASVPSVPSVQPSLLEDSPLVQALSGLHLSADRLEDSNKLKRSFSLDIKSVSYSASMAASLHGFSSSEDALEYYKPSTTLDGTNKLCQFSPVQELSEQTPETSPDKEEASIPKKLQTARPSDSQSKRLHSVRTSSSGTAQRSLLSPLHRSGSVEDNYHTSFLFGLSTSQQHLTKSAGLGLKGWHSDILAPQTSTPSLTSSWYFATESSHFYSASAIYGGSASYSAYSCSQLPTCGDQVYSVRRRQKPSDRADSRRSWHEESPFEKQFKRRSCQMEFGESIMSENRSREELGKVGSQSSFSGSMEIIEVS
modifications: full-length Myc tag
Q: B1 was tested. Which “in vitro phosphatase activity analysis (JNK3 phosphorylation by western blot)” value did it give?
A: The ectopically-expressed MKP7 protein exhibited strong phosphatase activity as demonstrated by the decrease in JNK3 phosphorylation

Q: What about the “in vitro phosphatase activity analysis after GSNO treatment of MKP7” value of the same protein?
A: nitrosylation of MKP7 by GSNO markedly inhibited MKP7 phosphatase activity

B2: Flag-tagged MKP7-WT (enzyme, UniProt Q9BY84 1-665, looked up, species assumed)
chain: MAHEMIGTQIVTERLVALLESGTEKVLLIDSRPFVEYNTSHILEAININCSKLMKRRLQQDKVLITELIQHSAKHKVDIDCSQKVVVYDQSSQDVASLSSDCFLTVLLGKLEKSFNSVHLLAGGFAEFSRCFPGLCEGKSTLVPTCISQPCLPVANIGPTRILPNLYLGCQRDVLNKELMQQNGIGYVLNASNTCPKPDFIPESHFLRVPVNDSFCEKILPWLDKSVDFIEKAKASNGCVLVHCLAGISRSATIAIAYIMKRMDMSLDEAYRFVKEKRPTISPNFNFLGQLLDYEKKIKNQTGASGPKSKLKLLHLEKPNEPVPAVSEGGQKSETPLSPPCADSATSEAAGQRPVHPASVPSVPSVQPSLLEDSPLVQALSGLHLSADRLEDSNKLKRSFSLDIKSVSYSASMAASLHGFSSSEDALEYYKPSTTLDGTNKLCQFSPVQELSEQTPETSPDKEEASIPKKLQTARPSDSQSKRLHSVRTSSSGTAQRSLLSPLHRSGSVEDNYHTSFLFGLSTSQQHLTKSAGLGLKGWHSDILAPQTSTPSLTSSWYFATESSHFYSASAIYGGSASYSAYSCSQLPTCGDQVYSVRRRQKPSDRADSRRSWHEESPFEKQFKRRSCQMEFGESIMSENRSREELGKVGSQSSFSGSMEIIEVS
modifications: full-length Flag tag
Q: How did the “in vitro phosphatase assay (JNK3 phosphorylation by western blot)” value (from here on “in vitro phosphatase assay”) turn out when B2 was run?
A: Both MKP7-WT and MKP7-ΔC possessed strong phosphatase activities as detected by the decreased phosphorylation of JNK3

B3: Flag-tagged MKP7-ΔC (A.A.1-317, retaining the catalytic domain) (enzyme, UniProt Q9BY84 1-317, looked up, species assumed)
chain: MAHEMIGTQIVTERLVALLESGTEKVLLIDSRPFVEYNTSHILEAININCSKLMKRRLQQDKVLITELIQHSAKHKVDIDCSQKVVVYDQSSQDVASLSSDCFLTVLLGKLEKSFNSVHLLAGGFAEFSRCFPGLCEGKSTLVPTCISQPCLPVANIGPTRILPNLYLGCQRDVLNKELMQQNGIGYVLNASNTCPKPDFIPESHFLRVPVNDSFCEKILPWLDKSVDFIEKAKASNGCVLVHCLAGISRSATIAIAYIMKRMDMSLDEAYRFVKEKRPTISPNFNFLGQLLDYEKKIKNQTGASGPKSKLKLLHLE
modifications: Flag tag
Q: Which “in vitro phosphatase assay” value does the source give for B3 here?
A: Both MKP7-WT and MKP7-ΔC possessed strong phosphatase activities as detected by the decreased phosphorylation of JNK3

B4: Flag-tagged MKP7-ΔC (C244S) (enzyme, UniProt Q9BY84 1-317 with C244S, looked up, species assumed)
chain: MAHEMIGTQIVTERLVALLESGTEKVLLIDSRPFVEYNTSHILEAININCSKLMKRRLQQDKVLITELIQHSAKHKVDIDCSQKVVVYDQSSQDVASLSSDCFLTVLLGKLEKSFNSVHLLAGGFAEFSRCFPGLCEGKSTLVPTCISQPCLPVANIGPTRILPNLYLGCQRDVLNKELMQQNGIGYVLNASNTCPKPDFIPESHFLRVPVNDSFCEKILPWLDKSVDFIEKAKASNGCVLVHSLAGISRSATIAIAYIMKRMDMSLDEAYRFVKEKRPTISPNFNFLGQLLDYEKKIKNQTGASGPKSKLKLLHLE
modifications: Flag tag
Q: Which “in vitro phosphatase assay” value does the source give for B4 here?
A: the phosphatase activity of MKP7-ΔC (C^244S) was much lower than that of MKP7-WT or MKP7-ΔC protein, and the activity after GSNO treatment was essentially unchanged
